According to US20220096608:

T1: α2-antiplasmin, P08697
T1 chain: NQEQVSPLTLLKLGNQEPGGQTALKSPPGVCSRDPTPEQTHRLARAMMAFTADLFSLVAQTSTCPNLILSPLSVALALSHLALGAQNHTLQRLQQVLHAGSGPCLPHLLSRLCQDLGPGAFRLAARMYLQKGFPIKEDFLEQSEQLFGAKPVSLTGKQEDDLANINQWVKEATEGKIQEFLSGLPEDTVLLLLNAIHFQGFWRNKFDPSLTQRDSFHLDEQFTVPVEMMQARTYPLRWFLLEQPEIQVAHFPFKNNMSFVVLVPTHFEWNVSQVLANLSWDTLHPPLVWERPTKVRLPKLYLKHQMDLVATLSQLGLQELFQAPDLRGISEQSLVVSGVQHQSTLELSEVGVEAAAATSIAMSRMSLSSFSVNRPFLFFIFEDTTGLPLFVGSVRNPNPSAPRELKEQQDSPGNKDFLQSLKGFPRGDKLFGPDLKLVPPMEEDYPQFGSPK


Target: T1, α2-antiplasmin, P08697

Row | Protein | In vitro Half-life (of inactivation by α2-antiplasmin)
1 | Mono-PEGylated Micro-plasmin variant (40 kDa PEG) V82C Catalytic Domain (SEQ ID NO. 4) (protein) APSFDCGKPQVEPKKCPGRVVGGCVAHPHSWPWQVSLRTRFGMHFCGGTLISPEWVLTAAHCLEKSPRPSSYKVILGAHQECNLEPHVQEIEVSRLFLEPTRKDIALLKLSSPAVITDKVIPACLPSPNYVVADRTECFITGWGETQGTFGAGLLKEAQLPVIENKVCNRYEFLNGRVQSTELCAGHLAGGTDSCQGDSGGPLVCFEKDKYILQGVTSWGLGCARPNKPGVYVRVSRFVTWIEGVMRNN | >7 min
2 | Bi-PEGylated Micro-plasmin variant (20 kDa-20 kDa PEG) V82C-H87C Catalytic Domain (SEQ ID NO. 12) (protein) APSFDCGKPQVEPKKCPGRVVGGCVAHPHSWPWQVSLRTRFGMHFCGGTLISPEWVLTAAHCLEKSPRPSSYKVILGAHQECNLEPCVQEIEVSRLFLEPTRKDIALLKLSSPAVITDKVIPACLPSPNYVVADRTECFITGWGETQGTFGAGLLKEAQLPVIENKVCNRYEFLNGRVQSTELCAGHLAGGTDSCQGDSGGPLVCFEKDKYILQGVTSWGLGCARPNKPGVYVRVSRFVTWIEGVMRNN | >10 min
3 | Mono-PEGylated Micro-plasmin variant (40 kDa PEG) H87C Catalytic Domain (SEQ ID NO. 9) (protein) APSFDCGKPQVEPKKCPGRVVGGCVAHPHSWPWQVSLRTRFGMHFCGGTLISPEWVLTAAHCLEKSPRPSSYKVILGAHQEVNLEPCVQEIEVSRLFLEPTRKDIALLKLSSPAVITDKVIPACLPSPNYVVADRTECFITGWGETQGTFGAGLLKEAQLPVIENKVCNRYEFLNGRVQSTELCAGHLAGGTDSCQGDSGGPLVCFEKDKYILQGVTSWGLGCARPNKPGVYVRVSRFVTWIEGVMRNN | >7 min
4 | Mono-PEGylated Micro-plasmin variant (20 kDa PEG) V82C Catalytic Domain (SEQ ID NO. 4) (protein) APSFDCGKPQVEPKKCPGRVVGGCVAHPHSWPWQVSLRTRFGMHFCGGTLISPEWVLTAAHCLEKSPRPSSYKVILGAHQECNLEPHVQEIEVSRLFLEPTRKDIALLKLSSPAVITDKVIPACLPSPNYVVADRTECFITGWGETQGTFGAGLLKEAQLPVIENKVCNRYEFLNGRVQSTELCAGHLAGGTDSCQGDSGGPLVCFEKDKYILQGVTSWGLGCARPNKPGVYVRVSRFVTWIEGVMRNN | 6 to 7 min
5 | Wild-type Micro-plasmin (SEQ ID NO. 2) (protein) APSFDCGKPQVEPKKCPGRVVGGCVAHPHSWPWQVSLRTRFGMHFCGGTLISPEWVLTAAHCLEKSPRPSSYKVILGAHQEVNLEPHVQEIEVSRLFLEPTRKDIALLKLSSPAVITDKVIPACLPSPNYVVADRTECFITGWGETQGTFGAGLLKEAQLPVIENKVCNRYEFLNGRVQSTELCAGHLAGGTDSCQGDSGGPLVCFEKDKYILQGVTSWGLGCARPNKPGVYVRVSRFVTWIEGVMRNN | >5 min
6 | Mono-PEGylated Micro-plasmin variant (20 kDa PEG) H87C Catalytic Domain (SEQ ID NO. 9) (protein) APSFDCGKPQVEPKKCPGRVVGGCVAHPHSWPWQVSLRTRFGMHFCGGTLISPEWVLTAAHCLEKSPRPSSYKVILGAHQEVNLEPCVQEIEVSRLFLEPTRKDIALLKLSSPAVITDKVIPACLPSPNYVVADRTECFITGWGETQGTFGAGLLKEAQLPVIENKVCNRYEFLNGRVQSTELCAGHLAGGTDSCQGDSGGPLVCFEKDKYILQGVTSWGLGCARPNKPGVYVRVSRFVTWIEGVMRNN | 6 to 7 min
